Patent US20060029603A1 (GlaxoSmithKline, published 2006)
Where two headings read alike, the source gives them in different places.

Legend:
GST-human NOGO-A56 [1] = biological target: T1, GST-human NOGO-A56 (human, UniProt P08515 1-218 = GST); test: ELISA, coated GST-human NOGO-A56, transfection supernatant, anti-human kappa-HRP, OD 490 nm
T1 construct: GST-tagged fusion expressed in E. coli BL21 and purified on glutathione-sepharose; coated on ELISA plates or amine-coupled to a CM5 chip; also called hNOGO; recombinant human NOGO
Method: (§1) GST-human NOGO-A56 (SEQ ID: 76) at 1 μg/ml in PBS was coated onto Nunc Immunosorp plates (100 μl per well) at 4° C. overnight. Wells were rinsed once with TBS+0.05% Tween (TBST) then incubated with 2% BSA in TBST to block non-specific binding sites at room temperature for 1 hour. Antibodies were diluted in TBST+2% BSA to 10 μg/ml and 1/2 dilutions made from this. Antibodies were added to wells in duplicate and incubated at room temperature for 1 hour. Wells were washed three times with TBST then incubated with anti-human kappa peroxidase conjugate (1:2000) for 1 hour. The wells were washed three times with TBST and then incubated with 100 μl OPD peroxidase substrate (Sigma) per well for 10 minutes. The colour reaction was stopped by the addition of 25 μl concentrated H₂SO₄. Optical density at 490 nm was measured using a plate reader. Background values read from wells with no antibody were subtracted.

GST-human NOGO-A56 [2] = biological target: T1, GST-human NOGO-A56; test: SPR (Biacore) off-rate ranking, CHO-K1 transient supernatant over GST-human NOGO-A56 chip; single experiment
Method: (§2) hNOGO (GST-human NOGO-A56) was immobilised to a CM5 chip by primary amine coupling using the Biacore Wizard program designed for targeted immobilisation levels. The CM5 sensor surface was activated by passing a solution of 50 mM N-hydroxy-succinimide (NHS) and 200 mM N-ethyl-N′-dimethylaminopropyl […] (EDC). Then hNOGO in sodium acetate buffer, pH5.0 or pH 4.5, was passed over the chip and immobilised. After immobilisation was complete any still activated esters were blocked by an injection of 1M ethanolamine hydrochloride, pH8.5.
(§3) The hNOGO chip was prepared as for kinetic analysis. Cell supernatants where taken directly from transient transfections of CHO-K1 cells. These were passed directly over the sensor surface and the interaction measured. A mock transfected cell supernatant was used for double referencing to remove any artefacts due to the tissue culture media. All runs were referenced against a blanked sensor surface (one that had been activated and blocked as described earlier but had no addition of ligand). Analysis of binding was carried out using the BIAevaluation kinetic analysis software version 4.1.

GST-human NOGO-A56 [3] = biological target: T1, GST-human NOGO-A56; test: SPR (Biacore 3000), GST-human NOGO-A56 on CM5, antibody as analyte; single experiment
Method: as §2
(§4) The anti-NOGO mAbs were diluted down in HBS-EP (10 mM HEPES, pH 7.4, 150 mM NaCl, 3 mM EDTA, and 0.005% P-20 surfactant) and binding studies were carried out at range of defined antibody concentrations. All runs were referenced against a blanked sensor surface (one that had been activated and blocked as described earlier but had no addition of ligand). Analysis of binding was carried out using the BIAevaluation kinetic analysis software version 4.1. Biacore analysis of other antibodies of the invention essentially followed the same protocol as described herein.

GST-human NOGO-A56 [4] = biological target: T1, GST-human NOGO-A56; test: as above; remark: listed apart in the source
Method: (§5) The binding kinetics of the anti-NOGO monoclonal antibody (mAb) to recombinantly expressed human NOGO-A (GST-human NOGO-A56) was analysed using the Biacore3000 biosensor. The hNOGO-A chip was prepared as follows:
as §2, §4

GST-human NOGO-A56 [5] = biological target: T1, GST-human NOGO-A56; test: ELISA, coated GST-human NOGO-A56, transfection supernatant, anti-human kappa-HRP, OD 490 nm; remark: listed apart in the source
Method: as §1

GST-human NOGO-A56 [6] = biological target: T1, GST-human NOGO-A56; test: SPR (Biacore 3000), GST-human NOGO-A56 amine-coupled to CM5, antibody as analyte; mean (SD) of four experiments
Method: as §5, §2, §4

GST-human NOGO-A56 [7] = biological target: T1, GST-human NOGO-A56; test: SPR (Biacore) off-rate ranking, CHO-K1 transient supernatant over GST-human NOGO-A56 chip; mean (SD) of three runs
Method: as §2, §3

GST-human NOGO-A56 [8] = biological target: T1, GST-human NOGO-A56; test: ELISA, coated GST-human NOGO-A56, transfection supernatant, anti-human kappa-HRP, OD 490 nm; remark: listed apart in the source
Method: as §1

GST-human NOGO-A56 [9] = biological target: T1, GST-human NOGO-A56; test: as above; remark: listed apart in the source
Method: as §1

GST-human NOGO-A56 [10] = biological target: T1, GST-human NOGO-A56; test: as above; remark: listed apart in the source
Method: as §1

GST-human NOGO-A56 [11] = biological target: T1, GST-human NOGO-A56; test: as above; remark: listed apart in the source
Method: as §1

T1 sequence (P08515 1-218, tags or fused parts left off): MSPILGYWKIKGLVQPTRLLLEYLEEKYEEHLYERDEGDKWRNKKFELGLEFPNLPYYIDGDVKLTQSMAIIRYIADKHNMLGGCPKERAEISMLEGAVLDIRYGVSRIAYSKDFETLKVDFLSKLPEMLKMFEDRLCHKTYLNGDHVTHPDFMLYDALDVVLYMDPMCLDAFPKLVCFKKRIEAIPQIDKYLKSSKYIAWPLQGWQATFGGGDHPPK

B1: H17L13 (antibody, human IgG1, kappa)
heavy: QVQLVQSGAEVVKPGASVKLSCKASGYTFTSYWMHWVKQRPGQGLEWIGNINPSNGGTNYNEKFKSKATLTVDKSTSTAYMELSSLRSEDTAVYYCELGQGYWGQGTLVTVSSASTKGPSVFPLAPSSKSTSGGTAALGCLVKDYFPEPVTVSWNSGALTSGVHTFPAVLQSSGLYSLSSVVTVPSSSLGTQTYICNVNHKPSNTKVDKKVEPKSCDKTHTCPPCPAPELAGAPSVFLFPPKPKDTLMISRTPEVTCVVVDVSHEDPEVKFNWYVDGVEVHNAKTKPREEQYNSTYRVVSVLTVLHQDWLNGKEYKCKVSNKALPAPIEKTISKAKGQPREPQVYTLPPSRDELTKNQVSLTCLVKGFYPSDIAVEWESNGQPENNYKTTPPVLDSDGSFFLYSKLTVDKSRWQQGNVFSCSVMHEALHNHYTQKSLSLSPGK
light: DIVMTQSPLSLPVTLGQPASISCRSSKSLLYKDGKTYLNWFQQRPGQSPQLLIYLMSTRASGVPDRFSGGGSGTDFTLKISRVEAEDVGVYYCQQLVEYPLTFGQGTKLEIKRTVAAPSVFIFPPSDEQLKSGTASVVCLLNNFYPREAKVQWKVDNALQSGNSQESVTEQDSKDSTYSLSSTLTLSKADYEKHKVYACEVTHQGLSSPVTKSFNRGEC
notes: Tested as CHO-K1 supernatant
EC50 (read off the curve) (GST-human NOGO-A56 [1]): ~0.06 µg/mL
koff (GST-human NOGO-A56 [2]): 0.00931 s⁻¹

B2: H6L13 (antibody, human IgG1, kappa, V domains shown)
VH: QVQLVQSGAEVKKPGASVKVSCKASGYTFTSYWMHWVRQAPGQGLEWIGNINPSNGGTNYNEKFKSRATMTRDTSTSTAYMELSSLRSEDTAVYYCELGQGYWGQGTLVTVSS
VL: DIVMTQSPLSLPVTLGQPASISCRSSKSLLYKDGKTYLNWFQQRPGQSPQLLIYLMSTRASGVPDRFSGGGSGTDFTLKISRVEAEDVGVYYCQQLVEYPLTFGQGTKLEIKR
notes: Humanised 2A10; Human gamma1 mutated constant region and human kappa; also called H6L13 FL
Kd (GST-human NOGO-A56 [3]): 7.9 nM
koff (GST-human NOGO-A56 [3]): 0.0233 s⁻¹
kon (GST-human NOGO-A56 [3]): 2.95e+06 M⁻¹ s⁻¹
Kd (GST-human NOGO-A56 [4]): 7.3 nM
koff (GST-human NOGO-A56 [4]): 0.013 s⁻¹
kon (GST-human NOGO-A56 [4]): 1.77e+06 M⁻¹ s⁻¹
EC50 (read off the curve) (GST-human NOGO-A56 [5]): ~0.2 µg/mL
Kd (GST-human NOGO-A56 [6]): 7.68 nM
koff (GST-human NOGO-A56 [6]): 0.0137 s⁻¹
kon (GST-human NOGO-A56 [6]): 1.82e+06 M⁻¹ s⁻¹
koff (GST-human NOGO-A56 [7]): 0.0173 s⁻¹

B3: H14L16 (antibody, human IgG1, kappa, V domains shown)
VH: QVQLVQSGAEVVKPGASVKLSCKASGYTFTSYWMHWVKQAPGQGLEWIGNINPSNGGTNYNEKFKSRATLTRDTSTSTAYMELSSLRSEDTAVYYCELGQGYWGQGTLVTVSS
VL: DIVMTQSPLSNPVTLGQPVSISCRSSKSLLYKDGKTYLNWFLQRPGQSPQLLIYLMSTRASGVPDRFSGGGSGTDFTLKISRVEAEDVGVYYCQQLVEYPLTFGQGTKLEIKR
Kd (GST-human NOGO-A56 [4]): 3.6 nM
koff (GST-human NOGO-A56 [4]): 0.00739 s⁻¹
kon (GST-human NOGO-A56 [4]): 2.05e+06 M⁻¹ s⁻¹
EC50 (read off the curve) (GST-human NOGO-A56 [8]): ~0.08 µg/mL
EC50 (read off the curve) (GST-human NOGO-A56 [9]): ~0.09 µg/mL
koff (GST-human NOGO-A56 [2]): 0.0089 s⁻¹

B4: H15L18 (antibody, human IgG1, kappa, V domains shown)
VH: QVQLVQSGAEVVKPGASVKLSCKASGYTFTSYWMHWVKQRPGQGLEWIGNINPSNGGTNYNEKFKSKATLTVDTSSSTAYMELSSLRSEDSAVYYCELGQGYWGQGTLVTVSS
VL: DIVMTQDPLSNPVTLGQPVSISCRSSKSLLYKDGKTYLNWFLQRPGQSPQLLIYLMSTRASGVSDRFSGSGSGTDFTLKISRVEAEDVGVYYCQQLVEYPLTFGQGTKLEIKR
notes: Tested as CHO-K1 supernatant
EC50 (read off the curve) (GST-human NOGO-A56 [8]): ~0.04 µg/mL
koff (GST-human NOGO-A56 [2]): 0.00594 s⁻¹

B5: H16L13 (antibody, human IgG1, kappa)
heavy: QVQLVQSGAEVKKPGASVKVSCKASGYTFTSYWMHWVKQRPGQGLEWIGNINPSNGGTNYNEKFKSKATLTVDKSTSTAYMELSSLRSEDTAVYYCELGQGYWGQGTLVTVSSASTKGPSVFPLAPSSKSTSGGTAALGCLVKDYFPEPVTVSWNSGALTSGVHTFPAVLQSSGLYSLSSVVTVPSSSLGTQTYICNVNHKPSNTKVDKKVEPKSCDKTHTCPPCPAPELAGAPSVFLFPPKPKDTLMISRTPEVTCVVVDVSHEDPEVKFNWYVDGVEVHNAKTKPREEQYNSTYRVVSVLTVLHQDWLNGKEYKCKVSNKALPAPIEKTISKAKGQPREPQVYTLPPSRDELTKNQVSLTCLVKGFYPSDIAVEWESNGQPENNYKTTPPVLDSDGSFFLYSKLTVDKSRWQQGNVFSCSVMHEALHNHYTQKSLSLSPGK
light: DIVMTQSPLSLPVTLGQPASISCRSSKSLLYKDGKTYLNWFQQRPGQSPQLLIYLMSTRASGVPDRFSGGGSGTDFTLKISRVEAEDVGVYYCQQLVEYPLTFGQGTKLEIKRTVAAPSVFIFPPSDEQLKSGTASVVCLLNNFYPREAKVQWKVDNALQSGNSQESVTEQDSKDSTYSLSSTLTLSKADYEKHKVYACEVTHQGLSSPVTKSFNRGEC
notes: Tested as CHO-K1 supernatant
EC50 (read off the curve) (GST-human NOGO-A56 [1]): ~0.08 µg/mL
koff (GST-human NOGO-A56 [2]): 0.00907 s⁻¹

B6: H1L11 (antibody, human IgG1, kappa, V domains shown)
VH: QVQLVQSGAEVKKPGASVKVSCKASGYTFTSYWMHWVRQAPGQGLEWMGNINPSNGGTNYNEKFKSRVTMTRDTSTSTVYMELSSLRSEDTAVYYCELGQGYWGQGTLVTVSS
VL: DIVITQSPLSLPVTLGQPASISCRSSKSLLYKDGKTYLNWFQQRPGQSPQLLIYLMSTRASGVPDRFSGGGSGTDFTLKISRVEAEDVGVYYCQQLVEYPLTFGQGTKLEIKR
notes: Earlier humanised 2A10
Kd (GST-human NOGO-A56 [4]): 21.3 nM
koff (GST-human NOGO-A56 [4]): 0.0284 s⁻¹
kon (GST-human NOGO-A56 [4]): 1.33e+06 M⁻¹ s⁻¹
Kd (GST-human NOGO-A56 [6]): 18.6 nM
koff (GST-human NOGO-A56 [6]): 0.0314 s⁻¹
kon (GST-human NOGO-A56 [6]): 1.73e+06 M⁻¹ s⁻¹
koff (GST-human NOGO-A56 [7]): 0.0403 s⁻¹

B7: H16L17 (antibody, V domains shown)
VH: QVQLVQSGAEVKKPGASVKVSCKASGYTFTSYWMHWVKQRPGQGLEWIGNINPSNGGTNYNEKFKSKATLTVDKSTSTAYMELSSLRSEDTAVYYCELGQGYWGQGTLVTVSS
VL: DIVMTQDPLSLPVTLGQPASISCRSSKSLLYKDGKTYLNWFQQRPGQSPQLLIYLMSTRASGVSDRFSGSGSGTDFTLKISRVEAEDVGVYYCQQLVEYPLTFGQGTKLEIKR
notes: copies: 2 + 2
EC50 (read off the curve) (GST-human NOGO-A56 [5]): ~0.1 µg/mL

B8: H17L18 (antibody)
heavy: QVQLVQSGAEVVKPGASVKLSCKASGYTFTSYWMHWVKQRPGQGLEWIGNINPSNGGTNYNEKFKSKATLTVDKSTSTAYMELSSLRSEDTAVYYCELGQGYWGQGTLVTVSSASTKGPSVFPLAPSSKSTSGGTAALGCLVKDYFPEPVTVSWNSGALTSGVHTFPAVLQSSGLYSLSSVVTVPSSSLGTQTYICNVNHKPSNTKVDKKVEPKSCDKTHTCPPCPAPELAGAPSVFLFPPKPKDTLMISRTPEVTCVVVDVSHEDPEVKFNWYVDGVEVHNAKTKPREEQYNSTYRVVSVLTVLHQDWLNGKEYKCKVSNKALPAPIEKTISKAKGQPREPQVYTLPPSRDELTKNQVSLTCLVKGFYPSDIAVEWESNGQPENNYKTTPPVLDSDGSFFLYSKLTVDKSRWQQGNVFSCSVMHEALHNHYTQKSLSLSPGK
light: DIVMTQDPLSNPVTLGQPVSISCRSSKSLLYKDGKTYLNWFLQRPGQSPQLLIYLMSTRASGVSDRFSGSGSGTDFTLKISRVEAEDVGVYYCQQLVEYPLTFGQGTKLEIKRTVAAPSVFIFPPSDEQLKSGTASVVCLLNNFYPREAKVQWKVDNALQSGNSQESVTEQDSKDSTYSLSSTLTLSKADYEKHKVYACEVTHQGLSSPVTKSFNRGEC
notes: copies: 2 + 2
EC50 (read off the curve) (GST-human NOGO-A56 [5]): ~0.1 µg/mL

B9: H15L13 (antibody, human IgG1, kappa, V domains shown)
VH: QVQLVQSGAEVVKPGASVKLSCKASGYTFTSYWMHWVKQRPGQGLEWIGNINPSNGGTNYNEKFKSKATLTVDTSSSTAYMELSSLRSEDSAVYYCELGQGYWGQGTLVTVSS
VL: DIVMTQSPLSLPVTLGQPASISCRSSKSLLYKDGKTYLNWFQQRPGQSPQLLIYLMSTRASGVPDRFSGGGSGTDFTLKISRVEAEDVGVYYCQQLVEYPLTFGQGTKLEIKR
notes: Tested as CHO-K1 supernatant
EC50 (read off the curve) (GST-human NOGO-A56 [10]): ~0.05 µg/mL
koff (GST-human NOGO-A56 [2]): 0.00965 s⁻¹

B10: H18L18 (antibody, human IgG1, kappa, V domains shown)
VH: QVQLVQSGAEVVKPGASVKLSCKASGYTFTSYWMHWVKQRPGQGLEWIGNINPSNGGTNYNEKFKSKATLTVDKSSSTAYMELSSLRSEDSAVYYCELGQGYWGQGTLVTVSS
VL: DIVMTQDPLSNPVTLGQPVSISCRSSKSLLYKDGKTYLNWFLQRPGQSPQLLIYLMSTRASGVSDRFSGSGSGTDFTLKISRVEAEDVGVYYCQQLVEYPLTFGQGTKLEIKR
notes: Tested as CHO-K1 supernatant
EC50 (read off the curve) (GST-human NOGO-A56 [5]): ~0.1 µg/mL
koff (GST-human NOGO-A56 [2]): 0.0058 s⁻¹

B11: H16L18 (antibody, human IgG1, kappa)
heavy: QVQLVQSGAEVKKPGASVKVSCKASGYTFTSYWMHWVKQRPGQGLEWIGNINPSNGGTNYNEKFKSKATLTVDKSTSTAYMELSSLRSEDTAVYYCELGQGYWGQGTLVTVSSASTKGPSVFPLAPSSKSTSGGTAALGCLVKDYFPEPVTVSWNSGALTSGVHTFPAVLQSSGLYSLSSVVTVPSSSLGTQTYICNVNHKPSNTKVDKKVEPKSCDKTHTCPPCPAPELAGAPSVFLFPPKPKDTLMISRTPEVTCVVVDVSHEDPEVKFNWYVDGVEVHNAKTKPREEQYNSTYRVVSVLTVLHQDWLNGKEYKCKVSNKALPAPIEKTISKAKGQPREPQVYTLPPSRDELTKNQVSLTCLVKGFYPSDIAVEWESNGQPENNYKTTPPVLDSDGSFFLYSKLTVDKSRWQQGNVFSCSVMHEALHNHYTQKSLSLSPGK
light: DIVMTQDPLSNPVTLGQPVSISCRSSKSLLYKDGKTYLNWFLQRPGQSPQLLIYLMSTRASGVSDRFSGSGSGTDFTLKISRVEAEDVGVYYCQQLVEYPLTFGQGTKLEIKRTVAAPSVFIFPPSDEQLKSGTASVVCLLNNFYPREAKVQWKVDNALQSGNSQESVTEQDSKDSTYSLSSTLTLSKADYEKHKVYACEVTHQGLSSPVTKSFNRGEC
notes: Humanised 2A10; Human gamma1 mutated constant region and human kappa; also called H16L18 FL
EC50 (read off the curve) (GST-human NOGO-A56 [11]): ~0.4 µg/mL
EC50 (read off the curve) (GST-human NOGO-A56 [8]): ~0.03 µg/mL
EC50 (read off the curve) (GST-human NOGO-A56 [10]): ~0.06 µg/mL
EC50 (read off the curve) (GST-human NOGO-A56 [1]): ~0.04 µg/mL
Kd (GST-human NOGO-A56 [6]): 1.33 nM
koff (GST-human NOGO-A56 [6]): 0.00552 s⁻¹
kon (GST-human NOGO-A56 [6]): 4.18e+06 M⁻¹ s⁻¹
koff (GST-human NOGO-A56 [7]): 0.00609 s⁻¹
